Biological target: Rat thrombin (rat)
Assay: enzyme inhibition kinetics (thrombin-catalysed hydrolysis of Chromozym TH)

Hirulog-1 (peptide) gave a Ki of 20.5 nM.

— publication PMC4585835, “A novel stearic acid-modified hirudin peptidomimetic with improved pharmacokinetic properties and anticoagulant activity” (Scientific Reports, 2015)
